Target: collagen I coupled to the Biacore CM5 chip (UniProt P02452)
Experiment: SPR; Biacore; SPARC-WT and SPARC-Fut8KO on collagen I; responses compared at 300 s; sensorgrams shown in Fig. 2C of Ref. [20]

UniProt P02452, sequence (P02452 23-1218, chain 1 of 2): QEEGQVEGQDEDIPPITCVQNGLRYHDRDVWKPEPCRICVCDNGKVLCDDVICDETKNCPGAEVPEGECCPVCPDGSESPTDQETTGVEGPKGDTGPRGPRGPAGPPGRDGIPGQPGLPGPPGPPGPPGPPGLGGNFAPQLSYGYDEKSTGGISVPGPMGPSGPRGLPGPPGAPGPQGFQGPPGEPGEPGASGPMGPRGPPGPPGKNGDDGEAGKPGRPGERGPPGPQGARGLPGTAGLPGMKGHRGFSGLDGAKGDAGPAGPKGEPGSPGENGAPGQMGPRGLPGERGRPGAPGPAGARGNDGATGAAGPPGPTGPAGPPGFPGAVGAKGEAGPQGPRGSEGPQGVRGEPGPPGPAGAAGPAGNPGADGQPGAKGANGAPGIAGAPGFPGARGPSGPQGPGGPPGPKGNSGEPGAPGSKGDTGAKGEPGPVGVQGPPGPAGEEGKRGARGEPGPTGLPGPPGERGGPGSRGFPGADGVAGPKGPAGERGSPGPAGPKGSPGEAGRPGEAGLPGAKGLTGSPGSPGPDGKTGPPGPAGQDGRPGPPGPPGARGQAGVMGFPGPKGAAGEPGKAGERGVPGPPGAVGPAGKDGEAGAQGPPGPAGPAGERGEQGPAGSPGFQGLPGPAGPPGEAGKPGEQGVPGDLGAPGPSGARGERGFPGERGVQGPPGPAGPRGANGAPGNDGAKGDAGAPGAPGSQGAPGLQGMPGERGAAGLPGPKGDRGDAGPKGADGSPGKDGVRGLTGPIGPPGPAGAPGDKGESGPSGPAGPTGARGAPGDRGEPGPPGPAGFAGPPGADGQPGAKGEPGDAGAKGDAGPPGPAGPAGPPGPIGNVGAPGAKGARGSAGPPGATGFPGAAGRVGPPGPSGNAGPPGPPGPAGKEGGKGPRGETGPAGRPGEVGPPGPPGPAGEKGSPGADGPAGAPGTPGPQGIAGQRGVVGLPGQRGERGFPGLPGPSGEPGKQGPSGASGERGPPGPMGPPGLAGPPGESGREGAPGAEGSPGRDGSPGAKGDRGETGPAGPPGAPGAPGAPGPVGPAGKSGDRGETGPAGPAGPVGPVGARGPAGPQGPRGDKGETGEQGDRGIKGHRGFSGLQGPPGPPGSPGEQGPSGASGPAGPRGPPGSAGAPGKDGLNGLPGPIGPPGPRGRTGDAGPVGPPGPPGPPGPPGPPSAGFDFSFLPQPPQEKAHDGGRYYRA
UniProt P02452, sequence (P08123 80-1119, chain 2 of 2, further chain): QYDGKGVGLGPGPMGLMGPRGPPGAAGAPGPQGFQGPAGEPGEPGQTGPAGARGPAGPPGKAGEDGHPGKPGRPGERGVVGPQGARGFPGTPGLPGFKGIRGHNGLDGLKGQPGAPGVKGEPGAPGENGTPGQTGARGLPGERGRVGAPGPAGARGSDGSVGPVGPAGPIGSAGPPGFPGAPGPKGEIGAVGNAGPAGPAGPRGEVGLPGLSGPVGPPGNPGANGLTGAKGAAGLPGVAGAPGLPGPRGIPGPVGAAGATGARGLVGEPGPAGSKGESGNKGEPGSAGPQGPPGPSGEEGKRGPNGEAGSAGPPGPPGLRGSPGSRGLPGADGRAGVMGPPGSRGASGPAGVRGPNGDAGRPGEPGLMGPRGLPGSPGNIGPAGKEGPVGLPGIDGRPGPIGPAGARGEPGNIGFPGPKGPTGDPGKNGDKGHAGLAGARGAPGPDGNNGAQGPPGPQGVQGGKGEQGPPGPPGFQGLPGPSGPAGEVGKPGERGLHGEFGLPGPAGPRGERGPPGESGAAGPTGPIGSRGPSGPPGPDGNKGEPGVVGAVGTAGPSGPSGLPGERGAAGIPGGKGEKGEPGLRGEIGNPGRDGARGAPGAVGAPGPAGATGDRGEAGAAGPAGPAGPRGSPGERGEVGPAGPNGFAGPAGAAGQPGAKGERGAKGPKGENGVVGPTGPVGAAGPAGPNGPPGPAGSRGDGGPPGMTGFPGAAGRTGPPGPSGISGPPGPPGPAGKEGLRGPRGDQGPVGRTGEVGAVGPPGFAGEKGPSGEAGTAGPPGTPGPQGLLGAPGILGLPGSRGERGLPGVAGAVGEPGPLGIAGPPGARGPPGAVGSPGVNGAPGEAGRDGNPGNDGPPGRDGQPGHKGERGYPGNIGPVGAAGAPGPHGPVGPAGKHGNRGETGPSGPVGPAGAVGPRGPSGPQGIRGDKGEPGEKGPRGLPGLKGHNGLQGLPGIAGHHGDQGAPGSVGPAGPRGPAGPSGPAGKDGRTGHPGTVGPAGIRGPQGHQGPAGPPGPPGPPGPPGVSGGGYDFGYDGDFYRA

binding response (RU) relative to SPARC-WT at 300 s: 40%
B1: recombinant His-tagged human SPARC from FUT8-knockout HEK-293T cells (SPARC-Fut8KO), not core-fucosylated (natural protein)
chain: APQQEALPDETEVVEETVAEVTEVSVGANPVQVEVGEFDDGAEETEEEVVAENPCQNHHCKHGKVCELDENNTPMCVCQDPTSCPAPIGEFEKVCSNDNKTFDSSCHFFATKCTLEGTKKGHKLHLDYIGPCKYIPPCLDSELTEFPLRMRDWLKNVLVTLYERDEDNNLLTEKQKLRVKKIHENEKRLEAGDHPVELLARDFEKNYNMYIFPVHWQFGQLDQHPIDGYLSHTELAPLRAPLIPMEHCTTRFFETCDLDNDKYIALDEWAGCFGIKQKDIDKDLVI
modifications: not core-fucosylated at N116
